# Source: patent US20160046703A1 (ORGENTEC DIAGNOSTIKA, published 2016)
# Molecular target: bovine serum albumin (BSA) (bovine, UniProt P02769 25-607)
# Experiment: ELISA on BSA-coated microtitre plates, detection with peroxidase-labelled RGS-6xHis antibody
# Description: For the ELISA detection of the specific β2-glycoprotein-binding activity of the scFv-CAD reaction module, serial dilutions of scFv-CAD in the indicated concentration were applied to microtitre plates coated with β2-glycoprotein and, for control purposes, with bovine serum albumin (BSA). The binding was determined using a peroxidase-labelled RGS-6×-His antibody (Qiagen, Hilden) and a tetramethylbenzidine (TMB) colour reaction by measurement of the O.D. 450.
# Characterisation of the binding reaction of the CAD-IgG-CH3-Knob02 modubody to the target β2-glycoprotein. […] The binding was determined using a peroxidase-labelled RGS-6×-His antibody (Qiagen, Hilden) and a tetramethylbenzidine (TMB) colour reaction by measurement of the O.D. 450 nm.
# In order to determine whether the CAD-IgG-CH3-Knob02 modubody has retained the β2-glycoprotein-binding activity of the scFv-CAD, purified CAD-IgG-CH3-Knob02 preparations were tested by immunoassays. […] The microtitre plates were washed and the binding of the CAD-IgG-CH3-Knob02 modubody was determined using a peroxidase-labelled RGS-6×-His antibody (Qiagen, Hilden) and a tetramethylbenzidine (TMB) colour reaction by measurement of the O.D. 450 nm. […] Specific binding to β2-glycoprotein was detected even at a concentration of the CAD-IgG-CH3-Knob02 modubody of 19 ng/ml.
# Chain of bovine serum albumin (BSA) (P02769 25-607 limits assumed): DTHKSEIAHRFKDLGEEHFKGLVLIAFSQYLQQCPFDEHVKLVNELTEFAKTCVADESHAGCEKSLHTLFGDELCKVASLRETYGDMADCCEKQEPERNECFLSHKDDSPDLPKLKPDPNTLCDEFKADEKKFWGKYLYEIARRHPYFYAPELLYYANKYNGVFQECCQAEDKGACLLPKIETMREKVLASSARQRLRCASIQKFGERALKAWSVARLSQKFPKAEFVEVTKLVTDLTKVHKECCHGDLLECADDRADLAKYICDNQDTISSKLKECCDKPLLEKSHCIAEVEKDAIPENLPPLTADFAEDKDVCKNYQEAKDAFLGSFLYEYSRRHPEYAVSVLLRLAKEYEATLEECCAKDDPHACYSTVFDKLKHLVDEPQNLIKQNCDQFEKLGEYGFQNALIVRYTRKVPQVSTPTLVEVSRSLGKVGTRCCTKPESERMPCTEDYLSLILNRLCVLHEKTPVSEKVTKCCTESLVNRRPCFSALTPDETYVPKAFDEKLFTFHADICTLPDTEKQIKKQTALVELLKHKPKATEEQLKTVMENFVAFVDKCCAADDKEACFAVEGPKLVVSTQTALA
row,binding result,Binder
1,no binding (tested: 0.019-10 µg/ml),"scFv-CAD β2-glycoprotein-binding module (artificial protein sequence scFv-RP-CAD-P) (scFv, Expressed in E. coli from pQE-80L as a 30 kDa protein; also called CAD-scFv; scFV-CAD reaction module; not shown: RGS-6xHis tag from expression vector pQE-80L (detected with anti-RGS-6xHis antib)) scFv: LVPRGSDVLMTQTPLSLPVSLGDQASISCRSSQSIVHSNGNTYLEWYLQKPGQSPKLLIYKVSNRFSGVPDRFSGSGSGTDFTLKISRVEAEDLGVYYCFQGSHVPYTFGGGTKLEIKRTGSGSGGGGSGGGGSGGGGSSGGGGSGGGGSGGGGSGSGEVQLQQSGPELVKPGASVKISCKASGYTFTDYYMHWVRQRPGQGLEWIGEIYPGSGNTSYNEKFRGKATLTADKSSSTAYMQLSSLTSEDSAVYFCARGTLDYTMDYWGQGTSVTVSS"
2,no binding (tested: 0.019-10 µg/ml),"single-chain CAD-IgG-CH3-Knob02 modubody (designed binder, Domain order is VL-linker-VH-linker-IgG-CH3-Knob02, 44 kDa, made in E. coli; also called CAD-IgG-CH3-Knob32 (as misprinted once); not shown: RGS-6xHis tag from vector pQE-80L) LVPRGSDVLMTQTPLSLPVSLGDQASISCRSSQSIVHSNGNTYLEWYLQKPGQSPKLLIYKVSNRFSGVPDRFSGSGSGTDFTLKISRVEAEDLGVYYCFQGSHVPYTFGGGTKLEIKRTGSGSGGGGSGGGGSGGGGSSGGGGSGGGGSGGGGSGSGEVQLQQSGPELVKPGASVKISCKASGYTFTDYYMHWVRQRPGQGLEWIGEIYPGSGNTSYNEKFRGKATLTADKSSSTAYMQLSSLTSEDSAVYFCARGTLDYTMDYWGQGTSVTVSSGSGGGGSGGGGSGGGGSSGGGGSGGGGSGGGGSGSGEPQVYTLPPSREEMTKNQVSLYCLVKGFYPSDIAVEWESNGQPENNYKTYPPVLDSDGSFYLYSKLTVDKSRWQQGNVFSCSVMHEALHNHYTQKSLSL"
